From patent US20220235103A1

B1: vS07_29B10 (designed binder)
chain: MRGSHHHHHHGSDLGKKLLQAARAGQLDEVRELLKAGADVNAKDREGITPLHLAAQHGHLEIVEVLLKAGADVNAKDVWGRTPLHLAAWQGHLEIVEVLLKAGADVNAKDLAGATPLHVAALYGHLEIVEVLLKAGADVNAQDKSGKTPADLAARAGHQDIAEVLQKAA
B2: vS07_12C06 (designed binder)
chain: MRGSHHHHHHGSDLGKKLLQAARAGQLDEVRELLKAGADVNAKDREGKTPLHVAAQEGHLEIVEVLLKAGADVNAKDVWGRTPLHLAAWIGHLEIVEVLLKAGADVNAKDVSGATPLHAAALHGHLEIVEVLLNAGADVNAQDKSGKTPADLAARAGHQDIAEVLQKAA
B3: vS07_23E04 (designed binder)
chain: MRGSHHHHHHGSDLGKKLLQAARAGQLDEVRELLKAGADVNAKDQEGITPLHVAAHQGHLEIVEVLLKAGADVNAKDVWGRTPLHLAAWRGHLEIVEVLLKAGADVNAKDHAGATPLHAAALSGHLEIVEVLLKAGADVNAQDKSGKTPADLAARAGHQDIAEVLQKAA
B4: ALE049 (designed binder)
chain: MRGSHHHHHHGSDLGKKLLEAARAGQDDEVRELLKAGADVNAKDYFSHTPLHLAARNGHLKIVEVLLKAGADVNAKDFAGKTPLHLAANEGHLEIVEVLLKAGADVNAQDIFGKTPADIAADAGHEDIAEVLQKAAGSPTPTPTTPTPTPTTPTPTPTGSDLGKKLLEAARAGQDDEVRELLKAGADVNAKDYFSHTPLHLAARNGHLKIVEVLLKAGADVNAKDFAGKTPLHLAANEGHLEIVEVLLKAGADVNAQDIFGKTPADIAADAGHEDIAEVLQKAAGSPTPTPTTPTPTPTTPTPTPTGSDLGKKLLQAARAGQLDEVRELLKAGADVNAKDREGITPLHLAAQHGHLEIVEVLLKAGADVNAKDVWGRTPLHLAAWQGHLEIVEVLLKAGADVNAKDLAGATPLHVAALYGHLEIVEVLLKAGADVNAQDKSGKTPADLAARAGHQDIAEVLQKAAGSPTPTPTTPTPTPTTPTPTPTGSDLGKKLLQAARAGQLDEVRELLKAGADVNAKDREGKTPLHVAAQEGHLEIVEVLLKAGADVNAKDVWGRTPLHLAAWIGHLEIVEVLLKAGADVNAKDVSGATPLHAAALHGHLEIVEVLLNAGADVNAQDKSGKTPADLAARAGHQDIAEVLQKAAGSPTPTPTTPTPTPTTPTPTPTGSDLGKKLLQAARAGQLDEVRELLKAGADVNAKDQEGITPLHVAAHQGHLEIVEVLLKAGADVNAKDVWGRTPLHLAAWRGHLEIVEVLLKAGADVNAKDHAGATPLHAAALSGHLEIVEVLLKAGADVNAQDKSGKTPADLAARAGHQDIAEVLQKAA

Target: SARS-CoV-2 spike protein variant B.1.1.7 (SARS-CoV-2), P0DTC2
Test: cell-based or functional assay

Row | Binder | VSV Pseudotype Neutralization Assay IC50 [ng/mL]
1 | B1 | 4.6
2 | B2 | 5.4
3 | B3 | 11.7
4 | B4 | 1.7
